From the domain aggregation screens of Martell et al. (2025)

Assay: soluble fraction after stress (log2 fold change); higher = more stays soluble; pooled small domains, quantitative proteomics
Conditions: stress: pH 4
Procedure, shortened: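 Aggregation propensity is estimated from the fold change in each domain's soluble amount after acid stress. Pooled small-domain libraries were stressed at pH 4, and higher log2 values mean more stayed soluble.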

Sequence | soluble fraction (log2)
HMGQPAVSSRDVAEQFGKEHRNVIQSIKNLIAENSALTFMFIEDTYTAGTGKKYPMYYMNRDGFTLLA | -0.15
HMPDLSAEERNIVEALQKSNDLQVNLIAVKTGMDMGTLSATLFGLEMKGLVKLMAGGTYHLI | 0.191
HMQASISVDEAKSIALNYAKFTADQVVYTKSELDYDDGRAEYEIEFYAGGKEYSFTIDAVSGTVLEMEI | 0.107
HMHDLGEQIIEKLRASGGISTLTDKSDPDAIYRQFKVSKKKYKQALGTLYKSRRITLAPNQIKLA | 0.22
HMHHDQQQITAELARIARNGLPGLTADNAIISRLDALNLLINIHDDRGADATPLRGLLPAIADELLRLT | 0.0087
HMQEAATSLNAKILAKLRENNGTLAVSDKSDPALISSLFGVSKGNFKKAIGALYKNGQIVIHADRIEL | 0.00478
HMHAPIAELKKVFKEEFADQEVTVRQLAGSVLLSGNVKTAELRENLESVAKQFFPRVINNLKLI | 0.0685
HMLMKILTDALEKMSPEELKELAEATGVKNTSSITPETMVGVFQAVFRVGGFKSYQLTLIIVNAVLKA | -0.398
HMGLTRRAQLEVADANLKRLYPGMHQSWVTAIAEYLHSSYWRYINSLEPEYAASIQRVYEQHIDAM | -0.0592
HMAEPTLNERLREALSDPAKLKIAKAIKAKYPIITARDIDTFLNMHEKDIENGADPMDEFEEFFHANY | -0.132
HMNGLDSVLRNWARQTLASGGENLLGDLTDHVTRLIISEALIMTGGNRTRAAELLGLSRPTLLAKMDKLNL | -0.789
HMNPMRYLVVPSQETETWKEYLVSKEWLERKYRIETEGDNRAIPLSNLFPKIVPIELSNLEIIEKEAFS | -1.09
HMINKIANLSAELRMEGLPVSIRSTQAAVKIYMDLGGDDRNLLKTALMSIYVKDRYDIPKFNKVFEKLFA | 0.0706
HMPDLKIGKDHRLAEYIETKIAEDGYSPGAVLGEIKAKGLEFETEISKPTLYSYIDKGIFLTITNKELPV | 0.0942
HMAPRASDALTERELDVLRVVADGASVAEAAEMLVVSRETVKKHLGNIYAKLGVHSKMQAVALLREEGV | -1.27
HMTRTISKVAKELAINIETVRFYERRGLIEQPPKPELGYRHYPDETVNRIRFIKRAQELGFTLEEIANLLS | -1.21
HMDYKSTLQELVQTVKKSVTYEVIDEEGPSHNKTFTSIVKIDGIVMGKGTAGSKKASEQEAARDALSKR | -0.0966
HMSSDLSNVVKIIDTLKHKKGALLPILHQIQREIGYIPLKTIDTIAKKLQQTPAEIHGVISFYHQFRTS | 0.22
HMKISIPQEYFEIYNVLKQRPMHINEISKILKKPVSEISGTISLMEIEGYITKLTTDQYVLKKI | -0.644
HMQSISLEEAKSAALDDAQLGIDEVEFLKTERNTDGDTSYYDIQFLVNGTIYKYQINTETGAILHVDYEA | -0.511
HMDLAPLQTVDIAINYAKAAELAAILKSSEGGILSDRGGVTVDERTNTLLIRDTLESIDEARKTI | -0.4
HMPLEQAELRLDLKQAILQMDRQTQELLLLRYVDGLSPGEAGKVLELSRFAVYRREKEALRKLRDYFSH | -0.834
HMSNPPIRIGKKALHELLTTWLSLLSRDGVAYLVVQKNLGADSLTAWLRDQGFPSEKIASKKGFRIIEVH | 0.0506
HMEDPAVYYKILQIPPDASLSEIHRAFEKITSAWDPERYPHISSWKETSAKKLQEIRNAYEKLLILRETG | -0.00219
HMPPNRDDEHLQALRDYYAANRRIPSLQRVASLLGFSSRSAAVKLMGRLADEGFIERTADDDAWITGKRFF | -0.371
HMGQLVVHQIKGEASRLDKFLVVNIPKYSRSVWREMINNGSVQVNGRVVKPHLLVKEGDIITWSS | 0.0267
HMILKNVTSDLANKRLDKVASILFQTYSRTQIKKWILEGRVLVNGEISNPKDHVHENDEIEINPI | ≥ 0.43
HMQARSQQTIQTLFKAAAQILDKEGEAGLSTNKVAAAAGFSIGTLYQYFPSKEVLIQAMAAR | 0.0662

Sequence | soluble fraction (log2)
HMYTVRDGDTVFGILNRFGVSLDELLSLNPELSNGLKAGMVLKIK | -1.13
HMSVDDEQLLKIIDDIFQQNPQAVTDAKTDSNAIHFLIGQVMKETKGHADHAISKEIIEKKLS | -0.726
HMGKTEMPFSTFLTEVDKGNIVSVDIRGSEISGNFRDGKGFKTYSPNYPNLVEKLSAKGVAITAGPR | 0.295
HMGAGEQMLPKVMFAEGDRVVHKVFGEGTVVTVDRPAQTYDIQFDKLRGTRRIMFRAELEGI | -0.922
HMTSPKSRIVSALLASPSRPEELAMRLGEDILTLMRTLTDFEASGIIQRLPDGRYTPTREYHLGLVDK | -0.534
HMINRPVYVPLYTNLDVKDAAEIAEKLEENNIAYKLEDQGETILVNPEQKYKVRLMLAQEGLPKG | 0.168
HMENPPISVVIPPSFRGQRIDKALGSLIGDYSRSKIQQWLQSGLVQSAGEPLLPKYTVLGNEQILIAVPS | 0.03
HMRRMTEEQSKLFQGLVSIVQTTLVADMEKGAVTPLLIAEKVDFVADNLYPGKDIDRKEAVAELIRRFSLW | -0.875
HMGTELSYSEFLNKVEAGEVTNVTIRGPEITFQTGNSSYTTYAPDDPKLIEHLTAKGVAIKAGP | -0.311
HMKKYFPPKSRFNPNKYLLKDWMALGLSEKQSQSILNFIQRGIYSNSALEKIYVMPEEVFTLIKDSTYYEE | -1.26
HMDRADIDAVDAEWVRATMERLGLRAKHIESHTGISKSTLSILLNGHRPLTRWHKIAFYYLFKHIEF | -1.82
HMQARLPFSFAKRHGVILLAATGEGQSDVIYKSGFDIGALAEVRRFVAGEIALKEVDGPSFDRQLTLTYQN | -1.34
HMGDFLLQVDFPPALLEMLPEGKRQAAIGVLSHDPRPAYQRTPGRVYGLNFAGHNIRFAVSENLLTVLEV | -0.302
HMGNIADARRDASYVFLIGEWAKSSNLTEKKLAGLIQSNHLDIKYGITVTDVIADIRKYKNDPTYNPF | 0.312
HMDREQLELYVGEVRVLQVGELRRIAIGNGKVLQASALDRGQLLLIPEAPGQSVLYLWTRDGTERHLSISV | -0.81
HMKLEEITIIVPSLRLDNFVSDLARTSRSKAVQIIDSERVFINGQNETKASKQVKLGDVITSA | -0.767
HMDRRDEYHQHLLRLLLSGEIRDKDELQRRKVKLSGEYGLAGVPKNSETLALVPPDRLPEVLDILR | -0.289
HMLETILQIGKDGVGENLVKQVNDALEARELIKGRVLDNNLELDARTAAQILAKATRSEVVQVIGTKFV | 0.0332
HMDGNVPSVEGKPLSGAKYILETYGYKTGTVTEVNSEDVPAGIVISQNPARGTTLANGGSVNLQVSLG | 0.238
HMDSIQMKNNSILYYGNTAGYLDAKRNTAVVDPMFRTDEMESYLSEQKGLSVEWASGTYDRLT | -0.921
HMNALREVNTSILNVRSGAGTNYSKIGSLTQATRVSVISESNGWSKINYNGKVGYVSSQYLS | ≥ 0.43
HMEKKDTYTVKNGDSLWGIARTELGDGGRFREIYTLNADTIEAEAKKRGRSSSSEGHWIYPGSVLRLP | -0.325
HMRVPTVIGMDEGTAKATLANASLKSNIVYESDETKENGKVLSQGIEQNKEVKAGTTVEIKVNKIE | 0.22
HMTGESVPAPLSGTIFKILVAPGEQVEEGQTVIILEAMKMETEISAPRSGVVGAINIKEGDSVQVGQSLFT | 0.104
HMGNLIIFYDAQTGSAPLLKAVKTSGATLVYEYKNLHGIAIRPSSKTSIEDAIAYFKKVNGVLSVE | 0.0783
HMGDTIFINNNFYVKHIVEFGETIDIISKIYDVSVNKILETNETSTKLYSGQSLFIPININV | -1.99
HMSVLPAREQVAAILRQAILLRKFKEGQDLTLKDAAELVGSSITPVREAFQILENEGLIELRPNKGAVVL | -0.616
